Experimental data as given in patent US7521540B2, “CYR61 compositions and methods” (Munin Corporation, priority 1996, dated 2009).

B1: DM: Cyr61 double mutant with both heparin-binding motifs mutated (SEQ ID NO:30 region) (protein)
chain: TCPAACHCPLEAPKCAPGVGLVRDGCGCCKVCAKQLNEDCSKTQPCDHTKGLECNFGASSTALKGICRAQSEGRPCEYNSRIYQNGESFQPNCKHQCTCIDGAVGCIPLCPQELSLPNLGCPNPRLVKVSGQCCEEWVCDEDSIKDSLDDQDDLLGLDASEVELTRNNELIAIGKGSSLKRLPVFGTEPRVLFNPLHAHGQKCIVQTTSWSQCSKSCGTGISTRVTNDNPECRLVKETRICEVRPCGQPVYSSSLKAGAACSATAKSPEPVRFTYAGCSSVAAYAPKYCGCVDGRCCTPLQTRTVKMRFRCEDGEMFSKNVMMIQSCKCNYNCPHPNEASFRLYSLFNDIHKFRD
B2: CTGF: Human ortholog of Fisp12, SEQ ID NO:8 (protein, listed as Homo sapiens)
chain: MTAASMGPVRVAFVVLLALCSRPAVGQNCSGPCRCPDEPAPRCPAGVSLVLDGCGCCRVCAKQLGELCTERDPCDPHKGLFCDFGSPANRKIGVCTAKDGAPCIFGGTVYRSGESFQSSCKYQCTCLDGAVGCMPLCSMDVRLPSPDCPFPRRVKLPGKCCEEWVCDEPKDQTVVGPALAAYRLEDTFGPDPTMIRANCLVQTTEWSACSKTCGMGISTRVTNDNASCRLEKQSRLCMVRPCEADLEENIKKGKKCIRTPKISKPIKFELSGCTSMKTYRAKFCGVCTDGRCCTPHRTTTLPVEFKCPDGEVMKKNMMFIKTCACHYNCPGDNDIFESLYYRKMYGDMA

Assays:
[1] = test system: 1064SK primary human foreskin fibroblasts; test: Fibroblast adhesion assay (methylene blue, A620); type: cell-based; conditions: protein coated on wells
Description: The ability of Cyr61 to mediate cell adhesion in normal fibroblasts was investigated. Microtiter wells were coated with purified recombinant Cyr61 protein, and 1064SK primary human foreskin fibroblasts were allowed to adhere under serum-free conditions. […] 50 μl cell suspensions were plated on microtiter wells coated with varying concentrations (0.5-5.0 μg/ml) of Cyr61 protein. After incubation at 37° C. for 30 minutes, adherent cells were fixed and stained with methylene blue.
In another experiment, microtiter wells were coated with either BSA, Cyr61 (2 μg/ml), or vitronectin (VN; 0.5 μg/ml) and blocked with affinity-purified anti-Cyr61 antibodies for one hour at 37° C. before 1064SK cells were plated.
The effects of divalent cations in cell adhesion to Cyr61 was also investigated. […] Data are means from triplicate determinations. […] Inhibition by Ca^2+ is characteristic of adhesion through some members of the β1 family of integrins, including receptors that bind type I collagen, laminin, and vitronectin (integrins α2β1, α6β1, and αVβ1) in fibroblasts, as well as the lymphocyte-specific integrin αLβ2.
The effects of RGD peptides on Cyr61-mediated fibroblast binding was tested by plating cells in wells coated with Cyr61 (2 μg/ml). Type I collagen (2 μg/ml) or vitronectin (0.5 μg/ml), 2 mM GRGDSP or GRGESP peptide was then added.
Cells were also pre-incubated with 40 μg/ml monoclonal antibodies against the integrin α5 or the integrin αV subunits at room temperature for 30 minutes, then plated on wells coated with Cyr61 (2 μg/ml), vitronectin (0.5 μg/ml) or fibronectin (FN, 1 μg/ml). […] The data are means, representative of three experiments.
The 1064 SK cells were also analyzed using the monoclonal antibody JBIA, which binds the β1 integrin subunit. Cells were pre-incubated with the antibody (50 μg/ml) before plating on microtiter wells coated with Cyr61 (2 μg/ml), Type I collagen (2 μg/ml), or vitronectin (0.5 μg/ml). […] Data are means, representative of three experiments.
To identify the specific β1 integrin that mediates fibroblast adhesion to Cyr61, the inhibitory effects of function-blocking monoclonal antibodies were tested against various integrin α subunits. […] The data are means, representative of at least three experiments.

[2] = test system: primary human foreskin fibroblasts; test: Cyr61-regulated gene expression (multi-gene blot, Northern); type: cell-based
Description: Purified, soluble, recombinant Cyr61 protein was added to cultures of primary human foreskin fibroblasts for 24 hours. From these cells, mRNA was isolated for preparation of probes to hybridize to a multi-gene blot (Clontech Atlas Human Array 1.2 cat no. 7850-1) containing about 650 genes. The levels of expression of these genes in Cyr61-treated cells were compared to that of control cells. […] These findings have been confirmed by Northern blot analysis showing increases or decreases of the mRNAs in question in Cyr61-treated cells. A time course of expression changes has been established. In particular, by 6 hours after its addition, Cyr61 has induced expression of VEGF-A mRNA and the induction is still evident at 12 and 24 hours post-addition. Also at 12 and 24 hours post-addition, Cyr61 has induced expression of VEGF-A polypeptide. With respect to VEGF-C, induction of mRNA is clearly evident 12 hours after addition of Cyr61 and the induction persists at least through 24 hours post-addition. Cyr61 is expected to induce the expression of VEGF-C polypeptide with similar kinetics.

[3] = Heparin binding assay (salt elution from heparin-Sepharose/agarose)
HUVE cells = test: HUVE cell adhesion to wild-type and double-mutant Cyr61; type: cell-based, human
Description: Immobilized cells were stained with methylene blue and absorbances (A620) were recorded. relative binding capacities (binding of cells not exposed to a pre-incubation compound defined as 100%) are presented in Table III.

NIH 3T3 cells = conditions: U.S. Pat. No. 5,408,040; cited from earlier work
cornea = test: Cornea assay for angiogenic factors; type: in vivo, rat; conditions: rat, in vivo
Source text: Another assay for modulators of angiogenesis is an in vivo assay for assessing the effect of a suspected modulator in the presence of an ECM signaling molecule-related biomaterial, such as Cyr61, on angiogenesis is the Cornea Assay. The Cornea Assay takes advantage of the absence of blood vessels in the cornea, which in the presence of an angiogenic factor, results in the detectable development of capillaries extending from the sclera into the cornea. Friedlander et al., Science 270:1500-1502 (1995). This ingrowth of new blood vessels from the sclera can be microscopically monitored. Further, the visually determined rate of migration can be used to assess changes in the rate of angiogenesis. These cornea assays may be performed using a wide variety of animal models. Preferably, the cornea assays are performed using rats. By way of example, an assay for suspected modulators of Cyr61 using this assay is disclosed. To perform this assay, Cyr61 is initially titrated using primary capillary endothelial cells to determine effective concentrations of Cyr61. Subsequently, Cyr61, in the presence or absence of a suspected modulator, is surgically implanted into the corneas of mammalian laboratory animals, e.g., rabbits or rats. In a preferred embodiment, Cyr61 (or Cyr61 and a suspected modulator) is embedded in a biocompatible matrix, using matrix materials and techniques that are standard in the art. Subsequently, eyes containing implants are visually observed for growth of the readily visible blood vessels within the eye. Control implantations may consist of physiologically balanced buffers embedded in the same type of matrix and implanted into eyes of the same type of laboratory animal receiving the Cyr61-containing implants.
Although rats of various sizes can be used in the cornea assay, a preferred size for the rats is 150-200 g/animal. Anesthesia is induced with Methoxyflurane and is maintained for 40-60 minutes with sodium pentobarbital (50 mg/kg, delivered intraperitoneally). The eyes are gently opened and secured in place by clamping the upper eyelid with a non-traumatic hemostat. Two drops of sterile proparacaine hydrochloride (0.5%) are then placed on each eye as to effect local anesthesia. Using a suitable surgical blade such as a No. 11 Bard Parker blade, an approximately 1.5 mm incision is made approximately 1 mm from the center of the cornea. […] Once the cornea pocket is made, the spatula is removed and the distance between the limbus and base of the pocket is measured to make sure the separation is at least about 1 mm. […]
Following surgery, animals are examined daily for seven days with the aid of a stereomicroscope to check for inflammation and responses. […] During this seven day period, animals are monitored for implant position and corneal exudate. […]

Molecule | support of 1064SK fibroblast adhesion [1] | induction of VEGF, MMP1, MMP3 etc. [2] | heparin binding [3] | NaCl concentration of elution from heparin-Sepharose/agarose ([3]; increasing salt concentrations) | HUVEC binding (HUVE cells) | migration of NIH 3T3 and BASM cells (reported) (NIH 3T3 cells) | angiogenic effect in cornea assay (cornea)
B1 | unable to support 1064SK fibroblast adhesion at any concentration tested | do not induce the expression of the above-referenced genes | severely deficient in heparin binding | up to 0.25 M NaCl | still mediated HUVEC binding |  | 
B2 |  |  |  |  |  | reported to induce the migration | confirm the effect of angiogenic factors
